The target in test [1] is T1, human EGFR (human, UniProt P00533 25-645).
T1 construct: also called human HER1 (EGFR); human EGFR-His
Briefly: ELISA, coated human EGFR (HER1), antibody titrated, absorbance 450 nm. Background: ELISA stands for enzyme-linked immunosorbent assay.

Test [2] addresses T2, human HER2 (human, UniProt P04626 23-652).
T2 construct: also called His-tagged HER2 protein
The experiment in a line: ELISA, coated human HER2, antibody titrated, absorbance 450 nm.

The target of test [3] is T3, human HER3 expressed on cells (human, UniProt P21860 20-1342).
T3 construct: HEK293 cells transfected with a vector encoding human HER3; Also used here for HER3 on U2OS PathHunter cells and cancer cell lines; also called HEK293 HER3 O/E cells; HER3-expressing cells
The experiment in a line: flow cytometry on HEK293 cells overexpressing human HER3, 20 ug/ml antibody, FITC anti-Fc secondary. As to the method:
The cells were washed thrice with FACS buffer (PBS with 5 mM EDTA and 0.5% BSA) and resuspended in FITC-conjugated anti-FC antibody (Invitrogen, USA) for 40 min at 2-8° C. Cells were washed again and resuspended in 200 μL of FACS flow buffer (PBS with 5 mM EDTA) for flow cytometric analysis using MACSQuant 10 (Miltenyi Biotec, Germany). After acquisition, all raw data were analyzed using Flowlogic software. Cells were gated using forward and side scatter profile percentage of positive cells was determined for native and overexpressing cell populations.

Test [4] concerns the target T2, human HER2. Briefly: ELISA, plate coated with 0.1 ug/ml target polypeptide, antibody titrated, absorbance 450 nm. As to the method: (§1) ELISAs were used to determine the binding specificity of the antibodies. […] The antibodies were also analysed for their ability to bind to human EGFR and human HER2 (Sino Biological Inc., China).
(§2) ELISAs were carried out according to standard protocols. Briefly, 96-well plates (Nunc, Denmark) were coated with 0.1 μg/ml of target polypeptide in phosphate-buffered saline (PBS) for 16 h at 4° C. After blocking for 1 h with 1% BSA in Tris buffer saline (TBS) at room temperature, the anti-HER3 antibody was serially diluted with the highest concentration being 10 μg/ml, and added to the plate. Post 1 h incubation at room temperature, plates were washed three times with TBS containing 0.05% Tween 20 (TBS-T) and were then incubated with a HRP-conjugated […] antibody (Life Technologies, Inc., USA) for 1 h at room temperature. After washing, plates were developed with colorimetric detection substrate 3,3′,5,5′-tetramethylbenzidine (Turbo-TMB; Pierce, USA) for 10 min. The reaction was stopped with 2M H₂SO₄, and OD was measured at 450 nm.

The target of test [5] is T1, human EGFR. The description is as above. How it is done:
as §1, §2

Consider three molecules from patent publication US20210155712A1 (HUMMINGBIRD BIOSCIENCE HOLDINGS PTE, published 2021).

B1: 10D1F.FcA (antibody, human IgG1, kappa)
heavy: not shown
light: DIQMTQSPSSVSASVGDRVTITCKASQIVGSNVAWYQQKPGKAPEPLIYSASYLYSGVPSRFSGSGSGTDFTLTISSLQPEDFATYYCQQYSSHPLTFGQGTKLEIKRTVAAPSVFIFPPSDEQLKSGTASVVCLLNNFYPREAKVQWKVDNALQSGNSQESVTEQDSKDSTYSLSSTLTLSKADYEKHKVYACEVTHQGLSSPVTKSFNRGEC
notes: the full chains 206/207 are used here; also called 10D1F.A; anti-HER3 clone 10D1_c89 IgG1
In the case of B1, the binding result in the test with human EGFR [1] and with human HER2 [2] was “no binding (tested: last point at about log(M) -8.1)” each time.

B2: anti-HER3 clone 10D1_c90 IgG1 (antibody, V domains shown)
VH: QVQLQESGPGLVKPSQTLFLTCTVSGYSITSGYSWHWIRQHPGKGLEWIGSIRYSGGTDYNPSLKSLVTISVDTSKNQFSLKLSSVTAADTAVYYCARMTTAPWYPFDYWGQGTTVTVSS
VL: DIQMTQSPSSVSASVGDRVTFTCKASQIVGSNVAWYQQKPGKAPEPLIYSASYLYSSVPSRFSGSGSGTEFTMTISSLEPEDFATYYCQQYTTHPLTFGPGTKVEIKR
notes: IgG1/kappa
In the case of B2, the “% Parent (HER3 Positive)” value in test [3] was 41.9%.

B3: anti-HER3 clone 10D1 IgG1 (antibody)
heavy: not shown
light: DIVMTQSQKFMSTSVGDRVSVTCKASQIVGSNVAWYQQKPGQSPKPLIYSASYRYSGVPDRFTASGSGTDFTLTITNVQSEDLAEYFCQQYSSHPLTFGAGTKLELKRTVAAPSVFIFPPSDEQLKSGTASVVCLLNNFYPREAKVQWKVDNALQSGNSQESVTEQDSKDSTYSLSSTLTLSKADYEKHKVYACEVTHQGLSSPVTKSFNRGEC
notes: also called 10D1P; 10D1 (parental)
As for B3, the binding result in the test with human HER2 [4] and in the test with human EGFR [5] was “no binding (tested: about 2e-7 M (log -6.7))” throughout.
